Patent US11078232B2, “Preparation and use of molecular site targeted and activated kinase inhibitor” (Yafei Shanghai Biology Medicine Science & Technology Co. …, priority 2017, dated 2021)

Assays:
[1] = Tumor tissue distribution by autofluorescence after intravenous injection; assay type: in vivo; conditions: 10 μmol/kg intravenously, after 12 hours, FIG. 2
Method: Since DOX, Succinyl-AANL-DOX and S3 have autofluorescence, they can be detected by fluorescence microscopy in tumor tissues. 10 μmol/kg of DOX, Succinyl-AANL-DOX and S3 were injected intravenously. After 12 hours, the drug distribution image of the tumor tissue sections and the fluorescence intensity of the tumor tissue homogenate were measured. Nuclear staining was performed using DAPI.

aspartic endopeptidase = molecular target: T1, aspartic endopeptidase (Homo sapiens, UniProt Q99538); test: Activation efficiency by aspartic endopeptidase (HPLC); assay type: biochemical; conditions: 1 mg/ml compound, enzyme 1 μmol/L, pH 6.0, 37° C., 2 hours; ratio of released product to original compound
T1 sequence (Q99538 18-323): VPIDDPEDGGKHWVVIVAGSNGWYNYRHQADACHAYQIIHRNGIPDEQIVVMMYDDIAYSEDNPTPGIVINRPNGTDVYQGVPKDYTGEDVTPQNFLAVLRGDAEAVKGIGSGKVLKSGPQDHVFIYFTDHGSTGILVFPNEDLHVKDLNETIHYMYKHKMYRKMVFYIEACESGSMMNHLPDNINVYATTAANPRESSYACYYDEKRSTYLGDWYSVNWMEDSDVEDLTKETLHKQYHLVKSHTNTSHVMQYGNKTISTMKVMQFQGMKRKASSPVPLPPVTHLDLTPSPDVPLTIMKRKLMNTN
Method: The sample compound and a portion of the control compound (herein, all of the control compounds can be synthesized by a method similar to that described in Examples 1-3) were uniformly diluted 10-fold to 1 mg/ml with the enzyme-digesting solution. In this experiment, 1 mg/ml of the sample compound was added to the aspartic endopeptidase (1 μmol/L, pH 6.0) at 37° C. for 2 hours. After the reaction, the enzyme digest was able to release the enzyme-digested product. The decrease in the compound and the increase in the product were examined by HPLC to compare the enzyme activation efficiency (the ratio of the product released by the enzyme cleavage to the original compound).

[2] = Solid stability, 60° C. for 10 days in the dark (HPLC); assay type: physicochemical; conditions: solid, 60° C., 10 days, dark
Method: The test was carried out by leaving it at 60° C. for 10 days in the dark. The ratio of the change in the content of the compound to the compound at time 0 was measured by HPLC, and the stability value (%) was calculated.

[3] = Drug content in tumor tissue homogenate (HPLC); assay type: in vivo; conditions: 10 micromoles per kilogram intravenous, tumor-bearing mice, FIG. 4
Method: Intravenous injection of 10 micromoles per kilogram of the drug into tumor-bearing mice, surgically obtained tumor tissue homogenate, and the drug content was determined by the HPLC method.

[4] = MTD (maximum tolerated dose) acute toxicity in mice; assay type: in vivo, mouse; conditions: female, mouse, in vivo; BALB/C mice, intravenous, observed 17 days
BALB/C mouse = test: as above; assay type: in vivo; conditions: intravenous
CT26 tumor cells = test: CT26 immunotherapy model (Example 15); assay type: in vivo, mice
D121 lung cancer cells = test: D121 lung cancer immunotherapy model; conditions: single agent

## COc1cccc2c1C(=O)c1c(O)c3c(c(O)c1C2=O)C[C@](O)(C(=O)CO)CC3OC1C[C@H](NC(=O)OCc2ccc(NC(=O)C(CC(N)=O)NC(=O)C(C)NC(=O)C(C)NC(=O)[C@H](O)[C@H](O)[C@@H](O[C@@H]3O[C@H](CO)[C@H](O)[C@H](O)[C@H]3O)[C@H](O)CO)cc2)[C@H](O)[C@H](C)O1 (some centres unmarked) [Compound S3, Lacto-AAN-PABC-Adriamycin]
[1]
  tumor tissue distribution and penetration: more tumor tissue distribution and penetration after intravenous injection than Succinyl-AANL-DOX
Aspartic endopeptidase
  Activation efficiencies (%): 82.6%
[2]
  Stability verdict (stable / unstable): stable
[2]; content versus time 0
  Stability(%): 99.8%
[3]
  drug distribution in the tumor: increasing the distribution in the tumor compared to C11
[4]
  MTD at 17 days: 100 mg/kg
BALB/C mouse; 10 mice per group
  Number of deaths: 1
BALB/C mouse; observed 17 days
  Death dose: 110 mg/kg
CT26 tumor cells; 10 in each group
  Cure rate %: 80%
  Number of cures: 8
CT26 tumor cells; IV ⅓ MTD once a week, 6 weeks
  Tumor inhibition rate % (Day 42): 82.5%
CT26 tumor cells; cured mice re-inoculated with CT26 cells after 50 days
  Recurrence rate % (Week 7): 0%
D121 lung cancer cells; i.v. ⅙ MTD once a week for 4 weeks
  Tumor inhibition rate/% (week 7): 62.5%
D121 lung cancer cells; tumor CD8+ T cells among CD45-positive cells, flow cytometry
  CD8: CD45 (%): 14.6%
